Like-named read-outs stand apart in the source and are kept apart here.
How the values were obtained:
Experiment in all cases: FRET or BRET
[1] = molecular target: A2AR-D2R heteromer (A2AR-Rluc with D2R-GFP2) (human) (UniProt P29274)
[2] = molecular target: A2AR-D2R heteromer (A2AR-Rluc with D2R-GFP2) (human) (UniProt P29274); remark: listed apart in the source
[3] = molecular target: A2AR-Rluc (adenosine A2A receptor fused to Renilla luciferase) (human) (UniProt P29274)
[4] = molecular target: D2R-Rluc (dopamine D2 receptor, long isoform, fused to Renilla luciferase) (human) (UniProt P14416)
Sequence of UniProt P14416 (P14416 whole entry, the tested form may be a part, canonical isoform): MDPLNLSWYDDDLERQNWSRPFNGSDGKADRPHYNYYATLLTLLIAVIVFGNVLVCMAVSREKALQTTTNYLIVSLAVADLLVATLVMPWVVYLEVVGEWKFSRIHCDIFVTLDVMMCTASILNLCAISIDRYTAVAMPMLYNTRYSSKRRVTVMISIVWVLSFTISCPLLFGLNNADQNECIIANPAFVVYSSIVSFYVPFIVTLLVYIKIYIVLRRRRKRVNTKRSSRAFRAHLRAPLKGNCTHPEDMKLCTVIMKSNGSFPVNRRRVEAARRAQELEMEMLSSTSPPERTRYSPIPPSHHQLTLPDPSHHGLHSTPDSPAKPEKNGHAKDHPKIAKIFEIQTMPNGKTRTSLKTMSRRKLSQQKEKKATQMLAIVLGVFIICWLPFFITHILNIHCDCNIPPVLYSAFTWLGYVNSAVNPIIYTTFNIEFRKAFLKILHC

Substance	SRET50 [1]	SRET50 [2]	BRET50 [3]	BRET50 [4]
NCS-1-YFP (neuronal calcium sensor 1 fused to yellow fluorescent protein) (from UniProt P62166 1-190) (natural protein)	24.1	8.9	42.4	23.4
calneuron-1-YFP (from UniProt Q9BXU9 1-261) (natural protein)	38.5	25.1	40.5	25.7

Source: paper PMC9875831
